Assay results taken from US9012420B2, “Aptamer for chymase, and use thereof” (Ribomic Inc., priority 2009, dated 2015).
Residue numbers refer to the chain shown, from its start. Oligonucleotides are written 5' to 3', each unit as a sugar letter and its base; * is a phosphorothioate linkage, no mark a phosphodiester; rarer units and linkages stand in square brackets, end groups in braces. Plain capitals give the bases only. r = 2'-OH (RNA); f = 2'-fluoro

T1: chymase (recombinant, manufactured by SIGMA) (Homo sapiens, UniProt P23946)
T1 construct: purchased SIGMA; host or cells: yeast
T1 sequence (P23946 22-247): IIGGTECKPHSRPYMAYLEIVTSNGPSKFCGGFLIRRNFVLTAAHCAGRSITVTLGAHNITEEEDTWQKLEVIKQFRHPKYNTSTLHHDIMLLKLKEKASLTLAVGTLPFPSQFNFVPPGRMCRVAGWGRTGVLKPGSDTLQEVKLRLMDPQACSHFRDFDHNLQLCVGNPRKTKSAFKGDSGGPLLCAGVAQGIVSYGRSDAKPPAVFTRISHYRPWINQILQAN

T2: chymase (recombinant) (UniProt P23946 P23946:22-247)
T2 sequence: T1 sequence (P23946 22-247)

B1: SEQ 25 (ssRNA)
RNA: GGGACGGUAGGAAUUCAGCUGACUCCAAUGCACACGUAGAUAGAGUUAAAACGUUGCAUAGAAGAGCGGCCGC
modifications: 2'-F pyrimidines
B2: SEQ 23 (ssRNA)
RNA: GGGACGGUAGGAAUUCAUAUGUACUCCGUCCUGACAAAAUGUCAAUGACAAACGUUCAUAGAAGAGCGGCCGC
modifications: 2'-F pyrimidines
B3: SEQ 19 (ssRNA)
RNA: GGGACGGUAGGAAUUCCCACUGCAAUUCAGCAGAAAAAAUUCCGAAAAACACACACCAUAGAAGAGCGGCCGC
modifications: 2'-F pyrimidines
B4: SEQ 18 (ssRNA)
RNA: GGGACGGUAGGAAUUCGAACGACAAAUUAUAGAACUUCGUUUGACAUUCCACACCACAUAGAAGAGCGGCCGC
modifications: 2'-F pyrimidines
B5: SEQ 6 (ssRNA)
RNA: GGGACGGUAGGAAUUCUACGGUCUGUGUGAAAUUGAAACACACAAAGAACAAUAGACAUAGAAGAGCGGCCGC
modifications: 2'-F pyrimidines
B6: SEQ 8 (ssRNA)
RNA: B5 RNA with G55A
modifications: 2'-F pyrimidines
B7: SEQ 24 (ssRNA)
RNA: GGGACGGUAGGAAUUCCCUUCAUAGUAGAAUGUUGGUUUCUACAAAAGCGACAAGCAUAGAAGAGCGGCCGC
modifications: 2'-F pyrimidines
B8: SEQ 17 (ssRNA)
RNA: GGGACGGUAGGAAUUCCGUUCGCAGAAACGAACUUUUAAAAAAUGUACGUGGGAGCACAUAGAAGAGCGGCCGC
modifications: 2'-F pyrimidines
B9: SEQ 30 (ssRNA)
RNA: GGGACGGUAGGAAUUCGUCCCUCUUGUCUAUUUUGCAGAUAGACUUAAAGCAAACAUAGAAGAGCGGCCGC
modifications: 2'-F pyrimidines
B10: SEQ 14 (ssRNA)
RNA: GGGACGGUAGGAAUUCUCGUUCCUGACAGCAUUUGAGAUAGAUUUAAACAAACGCACAUAGAAGAGCGGCCGC
modifications: 2'-F pyrimidines
B11: SEQ 9 (ssRNA)
RNA: GGGACGGUAGGAAUUCCCGAAAAGCAACAAGCUUGCUAAAAUGAUUCCGAAAAAACACAUAGAAGAGCGGCCGC
modifications: 2'-F pyrimidines
B12: SEQ 15 (ssRNA)
RNA: GGGACGGUAGGAAUUCCCAGAAAAUAAAUUCCGAAGAAAACAACAAUUUUUGCAAACAUAGAAGAGCGGCCGC
modifications: 2'-F pyrimidines
B13: SEQ 5 (ssRNA)
RNA: GGGACGGUAGGAAUUCCCACUUGUCUUUGAGGCAAGAAAUUGUAUUCCGAAGAAGCAUAGAAGAGCGGCCGC
modifications: 2'-F pyrimidines
B14: SEQ 12 (ssRNA)
RNA: GGGACGGUAGGAAUUCGCCGUCAACGUUACAUAAUGUAUAUACCAGGGUAACUAAACAUAGAAGAGCGGCCGC
modifications: 2'-F pyrimidines
B15: SEQ 26 (ssRNA)
RNA: GGGACGGUAGGAAUUCGUCGAUUCUACAGAUAGAGAUAAAGUAGAAUUUAACAAAACAUAGAAGAGCGGCCGC
modifications: 2'-F pyrimidines
B16: SEQ 11 (ssRNA)
RNA: GGGACGGUAGGAAUUCCCGACACGAAAUGUGUGAUUAAUUCCGAACAACAAAGUAACAUAGAAGAGCGGCCGC
modifications: 2'-F pyrimidines

Assays:
[1] = target: T1, chymase (recombinant, manufactured by SIGMA); test: Chymase inhibitory activity using synthetic substrate Suc-Ala-Ala-Pro-Phe-MCA; format: biochemical; details: same manner as Example 3
Procedure, shortened: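 Human recombinant chymase (16.7 nM or 1.67 nM final) preincubated 5 min at 37° C., then added to nucleic acid (0.0027–2 μM serial dilutions) and 100 μM substrate in solution C. AMC fluorescence (ex 380/em 460 nm) followed 5 or 30 min at 37° C.; slope gives initial velocity, inhibition versus no-inhibitor control yields IC50.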

[2] = target: T1, chymase (recombinant, manufactured by SIGMA); test: Surface plasmon resonance (Biacore T100), chymase immobilized on CM5 chip, nucleic acid injected as analyte; format: binding; design: key to Binding activity as determined using Biacore: ++: a sequence that binds to chymase significantly more strongly than the negative control 40N; +: a sequence that binds to chymase equivalently compared with the negative control 40N; key to binding activity using Biacore: ++: significant binding to chymase than SEQ ID NO: 58 which is a negative control; +: similar binding level as SEQ ID NO: 58 which is a negative control; details: for binding activity using Biacore: Table 5, same manner as Example 4, compared with SEQ ID NO: 58; for Binding activity as determined using Biacore: Table 4, about 4000 RU chymase immobilized, nucleic acid 0.3 μM, solution C, compared with 40N
Protocol: In another method, chymase is first immobilized onto a sensor chip, the amount immobilized being about 4000 RU. 20 μL of an aptamer solution for analyte, prepared at 0.01 μg/μL, is injected, and the binding of the aptamer to chymase is detected. An RNA containing a random nucleotide sequence of 30 or 40 nucleotides is used as a negative control.
Whether these nucleic acids bind to chymase was determined by the surface plasmon resonance method. Measurements were taken using Biacore T100 (manufactured by GE Healthcare) as described below. About 4000 RU of chymase (recombinant, manufactured by SIGMA) was immobilized on the sensor chip surface of a CM5 chip, using an amine coupling kit. 20 μL of each nucleic acid, prepared at 0.3 μM, as an analyte was injected at a flow rate of 20 μL/min. Solution C was used as a running buffer. The method of evaluation used was the same as Example 1.
All nucleic acids of SEQ ID NO: 58-68 were prepared by chemical synthesis. Whether these nucleic acids are bound to chymase was assessed by surface plasmon resonance method in the same manner as in Example 4. The inhibitory activity on chymase was measured in the same manner as in Example 3.
All nucleic acids of SEQ ID NOs: 73-79, 56(8), 80, 56(10), 81, 56(13)-56(14), 83-87 were prepared by chemical synthesis. Whether these nucleic acids are bound to chymase was assessed by surface plasmon resonance method in the same manner as in Example 4.
All nucleic acids of SEQ ID NO: 88-120, 121, 69, 122, 123, 70-72, 124-131 were prepared by chemical synthesis. Whether these nucleic acids are bound to chymase was assessed by surface plasmon resonance method in the same manner as in Example 4.

chymase (recombinant) [3] = target: T2, chymase (recombinant); test: inhibition; SPR ++; details: tags: SIGMA, expressed in yeast
Protocol: (§1) Here, Suc is a protecting succinyl group, and MCA is a 4-methylcoumaryl-7-amide group; upon cleavage of the C-terminal side of phenylalanine, AMC (7-amino-4-methyl-coumarine) is released. By detecting the fluorescence of this AMC, the enzyme activity of chymase can be determined. The assay was performed using a 96-well plate (F16 Black Maxisorp Fluoronunc, manufactured by Nunc), with a reaction mixture volume of 100 μL, in solution C as a buffer solution. First, each nucleic acid was serially diluted to 0.0027-2 μM concentrations in solution C to obtain 50 μL solutions. After 10 μL of the 1 mM substrate prepared in solution C was added thereto, the plate was set to the microplate reader SpectraMax190 (manufactured by Molecular Devices Corporation), and incubated at 37° C. for 5 minutes. Separately, 0.05 μg (or 0.005 μg) of chymase (recombinant, manufactured by SIGMA) was diluted in solution C to obtain a 40 μL chymase solution, and incubated at 37° C. for 5 minutes. The chymase solution was added to the mixture of the nucleic acid and substrate to initiate an enzyme reaction. The final chymase concentration in the reaction mixture was 16.7 nM (or 1.67 nM), the final substrate concentration being 100 μM. The plate containing the reaction mixture was set to the microplate reader SpectraMax190 (manufactured by Molecular Devices Corporation), and examined for time-dependent changes in the fluorescence intensity at 37° C. for 5 minutes (or 30 minutes) (excitation wavelength 380 nm, detection wavelength 460 nm). A linear approximation of the increase in the fluorescence of the AMC released from the substrate by chymase activity was generated, and its slope was taken as the initial velocity […]. For control, samples were treated and analyzed in the same manner in two cases: use of a 30N or 40N (a nucleotide of 30 or 40 consecutive bases represented by N; N is A, G, C or T) nucleic acid pool (negative control), and use of chymostatin, a known chymotrypsin-like serine protease inhibitor (positive control). Taking the initial reaction velocity without the nucleic acid and inhibitor (V_0) as a 100% enzyme activity, the inhibitory rate of each test substance was calculated using the following equation: […]
The inhibitory activity on chymase was measured in the same manner as in Example 3.

chymase (recombinant) [4] = target: T2, chymase (recombinant); test: inhibition; SPR ++; details: tags: SIGMA, expressed in yeast; remark: listed apart in the source
Protocol: as §1

[5] = Table 5, mean value of two measurements
[6] = Table 4, mean value for 2 to 3 measurements

| Molecule | IC50 (chymase (recombinant) [3]) [nM] | IC50 (chymase (recombinant) [4]) [nM] | other results |
| --- | --- | --- | --- |
| 62 (GGGUUGGAUAGAGUUAAGAACCC; 2'-fluoro at CU, RNA at AG, backbone not given here) [compound 62] | – | – | IC50 [1, 5]: 29 ± 4 nM; binding activity using Biacore [2]: ++ |
| 57 (GCAUUUGAGAUAGAUUUAAACAAACGC; 2'-fluoro at CU, RNA at AG, backbone not given here) [compound 57] | – | – | IC50 [1, 6]: 99 ± 13 nM; Binding activity as determined using Biacore [2]: ++ |
| 49 (GGUUCUACAGAUAGAGAUAAAGUAGAACC; 2'-fluoro at CU, RNA at AG, backbone not given here) [compound 49] | – | – | IC50 [1, 6]: 117 ± 66 nM; Binding activity as determined using Biacore [2]: ++ |
| 64 (rGfUfCrAfCrArGrAfUrArGrArGfUfUrArArArGfUrGrAfC) [compound 64] | – | – | IC50 [1, 5]: 20 ± 5 nM; binding activity using Biacore [2]: ++ |
| GGGUUAGAUAGAGUUAAAAACCC (ssRNA, 2'-F pyrimidines; PS between U5 and A6) [56(18)] | 12 | – | – |
| B1 | – | 79 | – |
| B2 | – | 238 | – |
| B3 | – | 163 | – |
| B4 | – | 58 | – |
| GGGUUAGAUAGAGUUAAAAACCC (ssRNA, 2'-F pyrimidines; 5' and 3' idT) [56(1)] | 26 | – | – |
| B5 | – | 456 | – |
| B6 | – | 453 | – |
| GGGUUAGAUAGAGUUAAAAACCC (ssRNA, 2'-F pyrimidines; PS between A6 and G7) [56(19)] | 8 | – | – |
| B7 | – | 92 | – |
| GGGUUAGAUAGAGUUAAAAACCC (ssRNA, 2'-F pyrimidines; 2'-OMe G7) [56(6)] | 31 | – | – |
| B8 | – | 92 | – |

| Molecule | IC50 (chymase (recombinant) [3]) [nM] | IC50 (chymase (recombinant) [4]) [nM] | other results |
| --- | --- | --- | --- |
| GGGUUAGAUAGAGUUAAAAACCC (ssRNA, 2'-F pyrimidines; 2'-OMe A10) [56(4)] | 27 | – | – |
| B9 | – | 147 | – |
| B10 | – | 61 | – |
| GGGUUAGAUAGAGUUAAAAACCC (ssRNA, 2'-F pyrimidines; 2'-OMe A12) [56(9)] | 111 | – | – |
| B11 | – | 273 | – |
| B12 | – | 285 | – |
| GGGUUAGAUAGAGUUAAAAACCC (ssRNA, 2'-F pyrimidines; 2'-OMe A19,A20) [56(3)] | 25 | – | – |
| GGGUUAGAUAGAGUUAAAAACCC (ssRNA, 2'-F pyrimidines; 2'-OMe G1-G3) [56(2)] | 24 | – | – |
| GGGUUAGAUAGAGUUAAAAACCC (ssRNA, 2'-F pyrimidines; 2'-OMe A16,A17) [56(5)] | 29 | – | – |
| B13 | – | 80 | – |
| B14 | – | 128 | – |
| B15 | – | 106 | – |
| B16 | – | 145 | – |
| GGGUUAGAUAGAGUUAAAAACCC (ssRNA, 2'-F pyrimidines; 2'-OMe G13) [56(12)] | 35 | – | – |
| GGGUUAGAUAGAGUUAAAAACCC (ssRNA, 2'-F pyrimidines; 2'-OMe A8) [56(7)] | 38 | – | – |
| GGGUUAGAUAGAGUUAAAAACCC (ssRNA, 2'-F pyrimidines; 2'-OMe A18) [56(11)] | 28 | – | – |
